Entries after “also recorded” stand apart in the source; their conditions may differ.
Experiments:
[1] = test system: short-term hematopoietic stem cells (ST-HSCs); experiment: Colony forming units spleen day 12 assay (CFU-S12); format: in vivo, mice
Method: To determine the bone marrow cell subsets that are protected by IL-12 administration for the rescue phenomena, CFC and CFU-S12 assay were performed at different time post lethal dose radiation. Bone marrow cells were recovered from IL-12 treated or control animals immediately (day 0), or at day 7, 9, 10, 12, 14 and 21 post radiation for CFC and CFU-S12 assay. If progenitor cells are protected from IL-12 treatment (IL-12 was administered in this study at 24 hours before radiation), CFC and CFU-S12 colonies should be detected when cells were removed at day 0. However, bone marrow cells isolated at day 0, 7 post radiation give rise no CFC nor CFU-S12 colonies in both IL-12 treated and control animals. At day 10 post radiation, the bone marrow cells isolated from IL-12 treated mice start to give rise of CFU-S12 but no detectable CFC, which start to appear from IL-112 treated bone marrow isolated 12 days post radiation and fully recovered from bone marrow cells isolated 14 days post radiation, as shown in FIGS. 5A and 5B. […] The CFU-S12 colony forming cells and CFC cells at day 10 and day 14 post radiation may be derived from long-term repopulating stem cells rescued by IL-12 treatment. […]
For the CFU-spleen12 assay, 2×10^5 bone marrow cells as donors were transplanted into recipient mice which received lethal irradiation. […] Spleen colonies were counted.

peripheral blood cells = experiment: Peripheral blood cell counts after lethal or sublethal irradiation; format: in vivo, mice (C57BL/6J)
Excerpt: After lethal dose radiation (10 Gy), the full blood cell count dropped to lowest point for both IL-12 treated and non-treated mice. However, 11-12 treated mice start to recover at day 14 post radiation while the control animals died out. It is noteworthy that the recovery is multi-lineage, including white blood cell, red blood cell and platelets.
Here too, the recovery is broad range and encompasses all blood lineages and blood cell types. […] This effect is somewhat better when IL-12 was administrated 24 hours before radiation than IL-12 administrated after radiation.
For peripheral blood cell counts, 6-8 week old female C57BL/6J mice received an i.v. injection of IL-12 before or after lethal (1000 rad) or sub-lethal (500 rad) irradiation. 10 ul blood was taken from the tail to do blood cell count analyses in a MASCOT Multispecies Hematology Systems (CDC Technologies, Oxford, Conn.) at different days after irradiation. Each group had at least 3 mice.

bone marrow = experiment: Bone marrow histology (H&E) after lethal dose radiation; format: in vivo, mice; settings: 5 ug/kg
Method: At different time post IL-12 treatment (5 ug/kg) and lethal dose radiation (1, 12 and 14 days), femurs were isolated, fixed in 10% formalin, decalcified and processed for paraffin section and for Hematoxylin & Eosin staining. FIG. 2A: 1 day post radiation; FIG. 2B: 12 days post radiation; FIG. 2C: 14 days post radiation. […] (200× magnification)
To determine if IL-112 sensitizes intestinal tract to ionizing radiation, two different doses of IL-12 and radiation were used in radioprotection assay, namely 5 ug/kg and 50 ug/kg of IL-12 and two different doses of radiation were also used. Subsequent to the administration of IL-12 and radiation, both bone marrow and the small intestine were removed from mice who received either 5 ug/kg or 50 ug/kg of IL-12 and a lethal dose radiation for histology study. The lethal doses were either 1000 rad or 1600 rad.
Mice were treated with IL-12 (100 ng/mouse) or PBS 24 hours before receiving lethal irradiation. At different days after lethal irradiation, femurs, spleens and small intestines were removed and fixed in 10% formalin buffer for 24 hours. Subsequently, bone marrow was decalcified in Rapid Decalcifier for about 30 minutes. Samples and tissues then were embedded in TissuePrep 2 paraffin wax for micro-section at 5 μm for routine Hematoxylin and Eosin staining. Some small intestines were treated with PAS (Periodic Acid Schiff) staining.

B1: IL-12: Recombinant murine interleukin 12, heterodimeric cytokine (p35+p40), purchased from R&D Systems or PeproTech (protein, UniProt P43431 23-215; P43432 23-335, looked up)
Interleukin-12 subunit alpha: RVIPVSGPARCLSQSRNLLKTTDDMVKTAREKLKHYSCTAEDIDHEDITRDQTSTLKTCLPLELHKNESCLATRETSSTTRGSCLPPQKTSLMMTLCLGSIYEDLKMYQTEFQAINAALQNHNHQQIILDKGMLVAIDELMQSLNHNGETLRQKPPVGEADPYRVKMKLCILLHAFSTRVVTINRVMGYLSSA
Interleukin-12 subunit beta: MWELEKDVYVVEVDWTPDAPGETVNLTCDTPEEDDITWTSDQRHGVIGSGKTLTITVKEFLDAGQYTCHKGGETLSHSHLLLHKKENGIWSTEILKNFKNKTFLKCEAPNYSGRFTCSWLVQRNMDLKFNIKSSSSSPDSRAVTCGMASLSAEKVTLDQRDYEKYSVSCQEDVTCPTAEETLPIELALEARQQNKYENYSTSFFIRDIIKPDPPKNLQMKPLKNSQVEVSWEYPDSWSTPHSYFSLKFFVRIQRKKEKMKETEEGCNQKGAFLVEKTSTEVQCKGGNVCVQAQDRYYNSSCSKWACVPCRVRS
[1]; cells isolated the first 7 days post lethal radiation
  CFU-S12 activity: did not give rise of CFU-S12
[1]; lethal radiation, IL-12 24 hours before radiation
  time of full recovered CFU-S12 activity: 10 days post radiation
Peripheral blood cells; lethal dose radiation (10 Gy)
  time to reach normal blood cell count: about 30 days post radiation
Peripheral blood cells; lethal dose radiation (10 Gy), 100 ng/mouse
  day at which blood cell counts start to recover: ≤ 14 day post radiation
Peripheral blood cells; lethal dose radiation (10 Gy), 100 ng/mouse, listed as 11-12
  day at which blood cell counts start to recover: 14 day post radiation
Peripheral blood cells; sublethal radiation (500 rad), 100 ng/mouse
  blood cell count recovery versus control: accelerates the blood cell count recovery
Peripheral blood cells; sublethal radiation (500 rad), day 5 and 8 post radiation, p<0.05
  red blood cell, platelet, white blood cell and monocyte versus control: statistically higher
Bone marrow; day 1 post lethal radiation
  bone marrow cellularity versus control: significant higher cellularity
Bone marrow; day 7 and day 10 post radiation
  bone marrow histological structure versus control: no significant difference
Bone marrow; day 12 post radiation
  bone marrow colonies: colonies were observed
Bone marrow; day 14 post radiation
  bone marrow recovery: full recovery of bone marrow cellularity; also recorded: significant regeneration

— US10029000B2, “Uses of IL-12 in hematopoiesis” (University of Southern California, priority 2003, dated 2018)
